Measurements as given in article PMC13043726, “SFPQ directs histone H3.3 deposition to R-loops in DNA repeats to protect genome stability”.
Blank lines part the entries; values can stand above or below the molecule they belong to.

What was measured:
[1] = target: HA-tagged DAXX, full length (UniProt Q9UER7); test: co-immunoprecipitation (IP anti-HA, blot anti-Myc); conditions: U-2 OS cells; parent: 1
[2] = target: T1, SFPQ full-length (Homo sapiens, UniProt P23246 1-707); test: EMSA; EMSA: 10 nM probe, 0-1600 nM SFPQ, 20 mM Tris-HCl pH 7.5, 100 mM KCl, 0.5 mM MgCl2, 0.5 mM EDTA, 0.2 mM DTT, 1% glycerol, room temperature, 30 min (RNaseOUT with RNA); 5% native PAGE, 1xTBE; conditions: protein: recombinant, tags: N-terminal His6-myc (vector pNIC-CTHF), chain copies: 2
T1 sequence: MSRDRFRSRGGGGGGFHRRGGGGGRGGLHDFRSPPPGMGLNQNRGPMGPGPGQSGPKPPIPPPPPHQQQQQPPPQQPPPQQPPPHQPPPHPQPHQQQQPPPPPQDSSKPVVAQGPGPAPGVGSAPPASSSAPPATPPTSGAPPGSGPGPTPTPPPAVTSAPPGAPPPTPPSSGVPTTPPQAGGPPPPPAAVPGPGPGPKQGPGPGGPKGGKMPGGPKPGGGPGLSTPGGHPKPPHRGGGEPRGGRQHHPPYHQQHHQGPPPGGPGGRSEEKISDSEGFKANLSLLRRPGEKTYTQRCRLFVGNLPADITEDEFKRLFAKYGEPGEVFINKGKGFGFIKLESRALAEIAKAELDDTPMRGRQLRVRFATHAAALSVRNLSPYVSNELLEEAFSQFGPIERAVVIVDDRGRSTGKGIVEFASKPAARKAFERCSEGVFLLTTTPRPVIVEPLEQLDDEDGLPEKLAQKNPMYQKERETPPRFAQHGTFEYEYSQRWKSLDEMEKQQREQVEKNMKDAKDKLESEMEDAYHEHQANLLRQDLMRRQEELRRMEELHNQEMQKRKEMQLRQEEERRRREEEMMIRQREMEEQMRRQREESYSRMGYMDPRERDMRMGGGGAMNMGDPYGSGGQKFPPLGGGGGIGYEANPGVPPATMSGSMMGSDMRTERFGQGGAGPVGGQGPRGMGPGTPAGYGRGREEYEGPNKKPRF

[3] = label: 5'-6-FAM on strand 1, blunt

HA-tagged DAXX, full length, sequence (Q9UER7 whole entry): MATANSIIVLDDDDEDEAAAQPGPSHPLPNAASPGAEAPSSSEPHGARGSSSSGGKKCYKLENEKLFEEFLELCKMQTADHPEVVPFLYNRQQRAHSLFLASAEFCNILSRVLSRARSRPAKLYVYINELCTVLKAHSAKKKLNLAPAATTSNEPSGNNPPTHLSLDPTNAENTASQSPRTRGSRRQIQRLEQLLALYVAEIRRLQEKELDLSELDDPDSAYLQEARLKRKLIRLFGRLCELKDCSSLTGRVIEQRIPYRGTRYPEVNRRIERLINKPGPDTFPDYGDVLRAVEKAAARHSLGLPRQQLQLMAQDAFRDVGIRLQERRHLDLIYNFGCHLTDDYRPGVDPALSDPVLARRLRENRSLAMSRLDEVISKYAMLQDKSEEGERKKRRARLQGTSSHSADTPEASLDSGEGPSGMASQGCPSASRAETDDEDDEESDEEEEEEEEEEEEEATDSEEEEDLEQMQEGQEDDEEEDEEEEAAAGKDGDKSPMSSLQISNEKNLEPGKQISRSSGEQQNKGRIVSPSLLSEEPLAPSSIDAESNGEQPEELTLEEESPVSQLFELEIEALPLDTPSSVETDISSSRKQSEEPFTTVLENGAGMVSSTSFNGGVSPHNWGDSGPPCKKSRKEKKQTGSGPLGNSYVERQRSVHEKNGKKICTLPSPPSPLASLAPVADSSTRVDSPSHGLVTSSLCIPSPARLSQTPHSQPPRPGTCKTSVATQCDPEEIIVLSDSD

ratio to parent [1]: 0.2
Molecule: SFPQ proline-rich P-domain fused to GFP and a nuclear localization signal, myc-tagged (from UniProt P23246) T150delinsKP

Molecule: GGAAUGGAAUGGAAUGGAAUGGA (ssRNA) [ssRNA Pericentric1 (SatIII [GGAAU]4)]
binding result ([2]; label: 5'-6-FAM, single strand): binds

B1: 23-nt DNA:RNA hybrid (D1_B:R2_B) (DNA:RNA)
DNA: CTACTACCCCCACCCTCACAACC
RNA: GGUUGUGAGGGUGGGGGUAGUAG
binding result ([2]; label: 5'-6-FAM on DNA strand, blunt): no binding

Molecule: GAAAGAAAGAAAGAAAGAAAGAA (ssRNA) [ssRNA Pericentric2 ([GAAA]5)]
binding result ([2]; label: 5'-6-FAM, single strand): binds

B2: 23-nt dsDNA (D1_B:D3_B) (dsDNA)
DNA 1: CTACTACCCCCACCCTCACAACC
DNA 2: GGTTGTGAGGGTGGGGGTAGTAG
binding result [2, 3]: no binding

B3: 23-nt blunt dsRNA (R1_B:R2_B) (dsRNA)
RNA 1: CUACUACCCCCACCCUCACAACC
RNA 2: GGUUGUGAGGGUGGGGGUAGUAG
binding result [2, 3]: no binding

Molecule: UUAGGGUUAGGGUUAGGGUUAGGG (ssRNA) [ssRNA TERRA [UUAGGG]4]
binding result ([2]; label: 5'-6-FAM, single strand): binds
